This note sets out measurements from US20140087995A1 (published 2014).

The chains are these.
T1: human calcitonin receptor (human, UniProt P30988 25-474)
T1 construct: whole, on cells; Used as cell membranes; also called hCTR; hCT
T1 sequence (looked up): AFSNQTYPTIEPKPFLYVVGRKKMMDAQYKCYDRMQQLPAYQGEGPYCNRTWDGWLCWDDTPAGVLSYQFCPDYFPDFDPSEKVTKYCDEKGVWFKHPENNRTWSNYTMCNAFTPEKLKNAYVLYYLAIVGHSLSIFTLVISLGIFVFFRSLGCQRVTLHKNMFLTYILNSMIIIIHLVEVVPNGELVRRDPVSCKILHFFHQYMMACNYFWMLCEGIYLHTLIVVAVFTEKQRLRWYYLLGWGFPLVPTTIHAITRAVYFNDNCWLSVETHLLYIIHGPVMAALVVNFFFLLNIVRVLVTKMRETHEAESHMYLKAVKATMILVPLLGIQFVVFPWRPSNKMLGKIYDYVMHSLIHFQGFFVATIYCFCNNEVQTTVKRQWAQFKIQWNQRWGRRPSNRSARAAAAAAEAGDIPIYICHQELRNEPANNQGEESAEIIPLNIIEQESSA

B1: N^ε1-[2-[2-[2-(19-carboxynonadecanoylamino)ethoxy]ethoxy]acetyl]-[Arg17,Pro21,Pro27,His34]-h-amylin (peptide)
peptide: K([AEEA-C20 diacid])CNTATCATQRLANFLRHSSPNFGAIPSSTNVGHNTY-NH2
modifications: disulfide 2-7; N-terminus assumed
SMILES: CC[C@H](C)[C@H](NC(=O)[C@H](C)NC(=O)CNC(=O)[C@H](Cc1ccccc1)NC(=O)[C@H](CC(N)=O)NC(=O)[C@@H]1CCCN1C(=O)[C@H](CO)NC(=O)[C@H](CO)NC(=O)[C@H](Cc1c[nH]cn1)NC(=O)[C@H](CCCNC(=N)N)NC(=O)[C@H](CC(C)C)NC(=O)[C@H](Cc1ccccc1)NC(=O)[C@H](CC(N)=O)NC(=O)[C@H](C)NC(=O)[C@H](CC(C)C)NC(=O)[C@H](CCCNC(=N)N)NC(=O)[C@H](CCC(N)=O)NC(=O)[C@@H](NC(=O)[C@H](C)NC(=O)[C@@H]1CSSC[C@H](NC(=O)[C@@H](N)CCCCNC(=O)COCCOCCNC(=O)CCCCCCCCCCCCCCCCCCC(=O)O)C(=O)N[C@@H](CC(N)=O)C(=O)N[C@@H]([C@@H](C)O)C(=O)N[C@@H](C)C(=O)N[C@@H]([C@@H](C)O)C(=O)N1)[C@@H](C)O)C(=O)N1CCC[C@H]1C(=O)N[C@@H](CO)C(=O)N[C@@H](CO)C(=O)N[C@H](C(=O)N[C@@H](CC(N)=O)C(=O)N[C@H](C(=O)NCC(=O)N[C@@H](Cc1c[nH]cn1)C(=O)N[C@@H](CC(N)=O)C(=O)N[C@H](C(=O)N[C@@H](Cc1ccc(O)cc1)C(N)=O)[C@@H](C)O)C(C)C)[C@@H](C)O
notes: also called compound 91
B2: N^-1-[(4S)-4-carboxy-4-(19-carboxynonadecanoylamino)butanoyl]-Gly[Arg1,Ala14,Arg17,Pro21,Pro27,His34]-h-amylin (peptide)
peptide: {C20 diacid-γGlu}-GRCNTATCATQRLAAFLRHSSPNFGAIPSSTNVGHNTY-NH2
modifications: disulfide 3-8
SMILES: CC[C@H](C)[C@H](NC(=O)[C@H](C)NC(=O)CNC(=O)[C@H](Cc1ccccc1)NC(=O)[C@H](CC(N)=O)NC(=O)[C@@H]1CCCN1C(=O)[C@H](CO)NC(=O)[C@H](CO)NC(=O)[C@H](Cc1c[nH]cn1)NC(=O)[C@H](CCCNC(=N)N)NC(=O)[C@H](CC(C)C)NC(=O)[C@H](Cc1ccccc1)NC(=O)[C@H](C)NC(=O)[C@H](C)NC(=O)[C@H](CC(C)C)NC(=O)[C@H](CCCNC(=N)N)NC(=O)[C@H](CCC(N)=O)NC(=O)[C@@H](NC(=O)[C@H](C)NC(=O)[C@@H]1CSSC[C@H](NC(=O)[C@H](CCCNC(=N)N)NC(=O)CNC(=O)CC[C@H](NC(=O)CCCCCCCCCCCCCCCCCCC(=O)O)C(=O)O)C(=O)N[C@@H](CC(N)=O)C(=O)N[C@@H]([C@@H](C)O)C(=O)N[C@@H](C)C(=O)N[C@@H]([C@@H](C)O)C(=O)N1)[C@@H](C)O)C(=O)N1CCC[C@H]1C(=O)N[C@@H](CO)C(=O)N[C@@H](CO)C(=O)N[C@H](C(=O)N[C@@H](CC(N)=O)C(=O)N[C@H](C(=O)NCC(=O)N[C@@H](Cc1c[nH]cn1)C(=O)N[C@@H](CC(N)=O)C(=O)N[C@H](C(=O)N[C@@H](Cc1ccc(O)cc1)C(N)=O)[C@@H](C)O)C(C)C)[C@@H](C)O
notes: 38 residues
B3: N^-1-[(4S)-4-carboxy-4-(19-carboxynonadecanoylamino)butanoyl]-Gly[Arg1,Ala14,Arg17,Pro21,Pro27,Pro34]-h-amylin (peptide)
peptide: {C20 diacid-γGlu}-GRCNTATCATQRLAAFLRHSSPNFGAIPSSTNVGPNTY-NH2
modifications: disulfide 3-8
notes: 38 residues
B4: N^-1-[(4S)-4-carboxy-4-(19-carboxynonadecanoylamino)butanoyl]-Gly[Arg1,His14,Arg17,Pro21,Pro27,Pro34]-h-amylin (peptide)
peptide: {C20 diacid-γGlu}-GRCNTATCATQRLAHFLRHSSPNFGAIPSSTNVGPNTY-NH2
modifications: disulfide 3-8
SMILES: CC[C@H](C)[C@H](NC(=O)[C@H](C)NC(=O)CNC(=O)[C@H](Cc1ccccc1)NC(=O)[C@H](CC(N)=O)NC(=O)[C@@H]1CCCN1C(=O)[C@H](CO)NC(=O)[C@H](CO)NC(=O)[C@H](Cc1c[nH]cn1)NC(=O)[C@H](CCCNC(=N)N)NC(=O)[C@H](CC(C)C)NC(=O)[C@H](Cc1ccccc1)NC(=O)[C@H](Cc1c[nH]cn1)NC(=O)[C@H](C)NC(=O)[C@H](CC(C)C)NC(=O)[C@H](CCCNC(=N)N)NC(=O)[C@H](CCC(N)=O)NC(=O)[C@@H](NC(=O)[C@H](C)NC(=O)[C@@H]1CSSC[C@H](NC(=O)[C@H](CCCNC(=N)N)NC(=O)CNC(=O)CC[C@H](NC(=O)CCCCCCCCCCCCCCCCCCC(=O)O)C(=O)O)C(=O)N[C@@H](CC(N)=O)C(=O)N[C@@H]([C@@H](C)O)C(=O)N[C@@H](C)C(=O)N[C@@H]([C@@H](C)O)C(=O)N1)[C@@H](C)O)C(=O)N1CCC[C@H]1C(=O)N[C@@H](CO)C(=O)N[C@@H](CO)C(=O)N[C@H](C(=O)N[C@@H](CC(N)=O)C(=O)N[C@H](C(=O)NCC(=O)N1CCC[C@H]1C(=O)N[C@@H](CC(N)=O)C(=O)N[C@H](C(=O)N[C@@H](Cc1ccc(O)cc1)C(N)=O)[C@@H](C)O)C(C)C)[C@@H](C)O
notes: 38 residues
B5: N{-1}-[(4S)-4-carboxy-4-(19-carboxynonadecanoylamino)butanoyl]-Gly[Arg1,His14,Arg17,Pro21,Pro27]-h-amylin (peptide)
peptide: {C20 diacid-γGlu}-GRCNTATCATQRLAHFLRHSSPNFGAIPSSTNVGSNTY-NH2
modifications: disulfide 3-8
SMILES: CC[C@H](C)[C@H](NC(=O)[C@H](C)NC(=O)CNC(=O)[C@H](Cc1ccccc1)NC(=O)[C@H](CC(N)=O)NC(=O)[C@@H]1CCCN1C(=O)[C@H](CO)NC(=O)[C@H](CO)NC(=O)[C@H](Cc1c[nH]cn1)NC(=O)[C@H](CCCNC(=N)N)NC(=O)[C@H](CC(C)C)NC(=O)[C@H](Cc1ccccc1)NC(=O)[C@H](Cc1c[nH]cn1)NC(=O)[C@H](C)NC(=O)[C@H](CC(C)C)NC(=O)[C@H](CCCNC(=N)N)NC(=O)[C@H](CCC(N)=O)NC(=O)[C@@H](NC(=O)[C@H](C)NC(=O)[C@@H]1CSSC[C@H](NC(=O)[C@H](CCCNC(=N)N)NC(=O)CNC(=O)CC[C@H](NC(=O)CCCCCCCCCCCCCCCCCCC(=O)O)C(=O)O)C(=O)N[C@@H](CC(N)=O)C(=O)N[C@@H]([C@@H](C)O)C(=O)N[C@@H](C)C(=O)N[C@@H]([C@@H](C)O)C(=O)N1)[C@@H](C)O)C(=O)N1CCC[C@H]1C(=O)N[C@@H](CO)C(=O)N[C@@H](CO)C(=O)N[C@H](C(=O)N[C@@H](CC(N)=O)C(=O)N[C@H](C(=O)NCC(=O)N[C@@H](CO)C(=O)N[C@@H](CC(N)=O)C(=O)N[C@H](C(=O)N[C@@H](Cc1ccc(O)cc1)C(N)=O)[C@@H](C)O)C(C)C)[C@@H](C)O
notes: 38 residues; also called compound 99
B6: N^ε1-[(4S)-4-carboxy-4-(15-carboxypentadecanoylamino)butanoyl]-[Arg17,Pro21,Pro27,His34]-h-amylin (peptide)
peptide: K([γGlu-C16 diacid])CNTATCATQRLANFLRHSSPNFGAIPSSTNVGHNTY-NH2
modifications: disulfide 2-7; N-terminus assumed
SMILES: CC[C@H](C)[C@H](NC(=O)[C@H](C)NC(=O)CNC(=O)[C@H](Cc1ccccc1)NC(=O)[C@H](CC(N)=O)NC(=O)[C@@H]1CCCN1C(=O)[C@H](CO)NC(=O)[C@H](CO)NC(=O)[C@H](Cc1c[nH]cn1)NC(=O)[C@H](CCCNC(=N)N)NC(=O)[C@H](CC(C)C)NC(=O)[C@H](Cc1ccccc1)NC(=O)[C@H](CC(N)=O)NC(=O)[C@H](C)NC(=O)[C@H](CC(C)C)NC(=O)[C@H](CCCNC(=N)N)NC(=O)[C@H](CCC(N)=O)NC(=O)[C@@H](NC(=O)[C@H](C)NC(=O)[C@@H]1CSSC[C@H](NC(=O)[C@@H](N)CCCCNC(=O)CC[C@H](NC(=O)CCCCCCCCCCCCCCC(=O)O)C(=O)O)C(=O)N[C@@H](CC(N)=O)C(=O)N[C@@H]([C@@H](C)O)C(=O)N[C@@H](C)C(=O)N[C@@H]([C@@H](C)O)C(=O)N1)[C@@H](C)O)C(=O)N1CCC[C@H]1C(=O)N[C@@H](CO)C(=O)N[C@@H](CO)C(=O)N[C@H](C(=O)N[C@@H](CC(N)=O)C(=O)N[C@H](C(=O)NCC(=O)N[C@@H](Cc1c[nH]cn1)C(=O)N[C@@H](CC(N)=O)C(=O)N[C@H](C(=O)N[C@@H](Cc1ccc(O)cc1)C(N)=O)[C@@H](C)O)C(C)C)[C@@H](C)O
B7: N^ε1-[2-[2-[2-[[2-[2-[2-[[(4S)-4-carboxy-4-(19-carboxynonadecanoylamino)butanoyl]amino]ethoxy]ethoxy]acetyl]amino]ethoxy]ethoxy]acetyl]-[Arg17,Pro21,Pro27,His34 … (peptide)
peptide: K([AEEA-AEEA-γGlu-C20 diacid])CNTATCATQRLANFLRHSSPNFGAIPSSTNVGHNTY-NH2
modifications: disulfide 2-7; N-terminus assumed
SMILES: CC[C@H](C)[C@H](NC(=O)[C@H](C)NC(=O)CNC(=O)[C@H](Cc1ccccc1)NC(=O)[C@H](CC(N)=O)NC(=O)[C@@H]1CCCN1C(=O)[C@H](CO)NC(=O)[C@H](CO)NC(=O)[C@H](Cc1c[nH]cn1)NC(=O)[C@H](CCCNC(=N)N)NC(=O)[C@H](CC(C)C)NC(=O)[C@H](Cc1ccccc1)NC(=O)[C@H](CC(N)=O)NC(=O)[C@H](C)NC(=O)[C@H](CC(C)C)NC(=O)[C@H](CCCNC(=N)N)NC(=O)[C@H](CCC(N)=O)NC(=O)[C@@H](NC(=O)[C@H](C)NC(=O)[C@@H]1CSSC[C@H](NC(=O)[C@@H](N)CCCCNC(=O)COCCOCCNC(=O)COCCOCCNC(=O)CC[C@H](NC(=O)CCCCCCCCCCCCCCCCCCC(=O)O)C(=O)O)C(=O)N[C@@H](CC(N)=O)C(=O)N[C@@H]([C@@H](C)O)C(=O)N[C@@H](C)C(=O)N[C@@H]([C@@H](C)O)C(=O)N1)[C@@H](C)O)C(=O)N1CCC[C@H]1C(=O)N[C@@H](CO)C(=O)N[C@@H](CO)C(=O)N[C@H](C(=O)N[C@@H](CC(N)=O)C(=O)N[C@H](C(=O)NCC(=O)N[C@@H](Cc1c[nH]cn1)C(=O)N[C@@H](CC(N)=O)C(=O)N[C@H](C(=O)N[C@@H](Cc1ccc(O)cc1)C(N)=O)[C@@H](C)O)C(C)C)[C@@H](C)O
notes: also called compound 97

Numbered stars: 1 amine (or outer) side, 2 acyl side, 3 side chain; on linkers, the order of the positions; unused ones are H or OH. Bridge positions count the residues as written; N and C are the ends. Side chains are listed from the residue outwards. Ends that are not written are not given here. * marks the point of attachment. C20 diacid = O=C(O)CCCCCCCCCCCCCCCCCCC(=O)*; C16 diacid = O=C(O)CCCCCCCCCCCCCCC(=O)*; γGlu = O=C(O)[C@H](CCC(=O)[*:2])N[*:1]; AEEA = NCCOCCOCC(=O)O

For the first assay, the target named is T1, human calcitonin receptor. The assay is described as follows: SPA competition on BHK cell membranes, 125I-calcitonin as radioligand (Assay VII). In outline:
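BHK hCTR membranes 35 ng/μL + SPA beads 0.05 mg/well; buffer 50 mM Hepes pH 7.4, 1 mM CaCl2, 5 mM MgCl₂, 0.1% OA, 0.02% Tween20. 120 min, 25° C., shaking. Scintillation count; IC50 by one-site binding competition.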
A word on the IC50: it is the concentration that gives 50% inhibition. As for B1, the IC50 came to 12 nM.
Turning to B2, the IC50 was 29.2 nM.
B3: the IC50 was 3 nM.
As to B4, the IC50 amounted to 7.87 nM.
Consider B5, for which the IC50 was 35 nM.
The same measure, in the same setting: the result for B6 reads 10.8 nM; that for B7, 58.9 nM.

A further assay concerns the target T1, human calcitonin receptor. The assay can be described thus: ratio of hCTR IC50 to hAmylin-R IC50 (reference: human amylin receptor). In outline: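 Membranes (35 ng/μL final) + SPA beads, 50 mM Hepes pH 7.4 buffer with 1 mM CaCl2, 5 mM MgCl₂, 0.1% OA, 0.02% Tween20; 120 min, 25° C, shaking; centrifuged, counted; IC₅₀ by one-site binding competition.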
As for B1, the “Ratio hCT/hAmylin binding” value was found to be 101.
Same read-out and setting: the result for B2 reads 68.6; that for B3, 26.5; that for B4, 36.2.
The same measure, in the same setting: in the case of B5 it was 100; in that of B6, 18.5.
On to B7, for which the “Ratio hCT/hAmylin binding” value turned out to be 104.
